# Reference: US20250051464A1 (IMMUNOME, published 2025)
# Substitutions are numbered along the chain they refer to.
# B1: AB-009812 (antibody, mouse IgG2a, V domains shown)
# VH: QVQLQQWGAGLLKPSETLSLTCAVYGGSFSDYYWSWIRQPPGKGLEWIGEVNHSGSINYNNYNPSLKSRVTISVDPSKNQFSLKLTSVTAADTAVYYCAKPLRPHCTNGVCYSGDAFDIWGQGTMVTVAS
# VL: SYVLTQPPSVSVAPGQTARITCGGNNIGSKNVHWYQQKPGQAPVLVVYDDSDRPSGIPEQFSGSNSGNTATLTISRVEAGDEADYYCQVWDSSSDHLVFGGGTKLTVL
# B2: AB-009813 (antibody, mouse IgG2a, V domains shown)
# VH: B1 VH with S54A
# VL: B1 VL
# B3: AB-009815 (antibody, mouse IgG2a, V domains shown)
# VH: B1 VH with S54R, P76T
# VL: B1 VL
# B4: AB-009816 (antibody, mouse IgG2a, V domains shown)
# VH: B1 VH with S54R, P76A
# VL: B1 VL
# B5: AB-010699 (mIgG2a format) (antibody, V domains shown)
# VH: B1 VH with D31G, V51I, S54R, P76T, T86S, T107I
# VL: B1 VL with S29Y, Q60R, S92H, L97V
# notes: Tested with mouse IgG2a constant regions (mIgG2a format)
# B6: AB-010699 human Fab fragment (Fab, V domains shown)
# VH: B1 VH with D31G, V51I, S54R, P76T, T86S, T107I
# VL: B1 VL with S29Y, Q60R, S92H, L97V
# notes: Human Fab fragment
# How the values were obtained:
# [1] = target: T1, Human EphA2 (ephrin receptor A2) (human, UniProt P29317 24-976); test: IHC/IF score on frozen human tumor tissue, TNBC
# T1 construct: Endogenous protein in frozen human tumor tissue and tumor adjacent tissue, not a recombinant construct
# [2] = target: T1, Human EphA2 (ephrin receptor A2); test: IHC/IF score on frozen human tumor tissue, PANC
# [3] = target: T1, Human EphA2 (ephrin receptor A2); test: IHC/IF score on frozen human tumor tissue, MELA
# [4] = target: T1, Human EphA2 (ephrin receptor A2); test: IHC/IF score on frozen human tumor tissue, ESC
# [5] = target: T1, Human EphA2 (ephrin receptor A2); test: IHC/IF score on frozen human tumor tissue, STS
# [6] = target: T1, Human EphA2 (ephrin receptor A2); test: IHC/IF score on frozen human tumor tissue, Her2+ BRC
# [7] = target: T1, Human EphA2 (ephrin receptor A2); test: IHC/IF score on frozen human tumor tissue, UCEC-endometriod
# [8] = target: T1, Human EphA2 (ephrin receptor A2); test: IHC/IF score on frozen human tumor tissue, ER+ BRC
# [9] = target: T1, Human EphA2 (ephrin receptor A2); test: IHC/IF score on frozen human tumor tissue, NSCLC-SQ
# [10] = target: T1, Human EphA2 (ephrin receptor A2); test: IHC/IF score on frozen human tumor tissue, RCC-papillary
# [11] = target: T1, Human EphA2 (ephrin receptor A2); test: IHC/IF score on frozen human tumor tissue, NSCLC-Adeno
# [12] = target: T1, Human EphA2 (ephrin receptor A2); test: IHC/IF score on frozen human tumor tissue, GAC
# [13] = target: T1, Human EphA2 (ephrin receptor A2); test: IHC/IF score on frozen human tumor tissue, UCEC-clear cell
# [14] = target: T1, Human EphA2 (ephrin receptor A2); test: IHC/IF score on frozen human tumor tissue, URO
# [15] = target: T1, Human EphA2 (ephrin receptor A2); test: IHC/IF score on frozen human tumor tissue, OVA
# [16] = target: T1, Human EphA2 (ephrin receptor A2); test: IHC/IF score on frozen human tumor tissue, PROC
# [17] = target: T1, Human EphA2 (ephrin receptor A2); test: IHC/IF score on frozen human tumor tissue, RCC-clear cell
# [18] = target: T1, Human EphA2 (ephrin receptor A2); test: IHC/IF score on frozen human tumor tissue, ANC
# [19] = target: T1, Human EphA2 (ephrin receptor A2); test: IHC/IF score on frozen human tumor tissue, HNC
# [20] = target: T1, Human EphA2 (ephrin receptor A2); test: IHC/IF score on frozen human tumor tissue, CRC
# [21] = target: T1, Human EphA2 (ephrin receptor A2); test: IHC/IF score on frozen human tumor tissue, UCEC-papillary
# [22] = target: T2, C-terminally His-tagged hEphA2-FN2 (Thr437-Asn534+His tag) (human, UniProt P29317 437-534); test: SPR Biacore T200, 25 C, mIgG2a captured by anti-mouse Fc, FN2-His as analyte, steady-state fit, monovalent
# T2 construct: SPR analyte; also called FN2 domain of hEphA2
# Procedure: Binding of antibodies to the FN2 domain of hEphA2 was measured using the Biacore® T200 SPR system at 25° C. using HBS-EP+ buffer (0.01 M HEPES pH 7.4, 0.15 M NaCl, 3 mM EDTA, 0.005% v/v Surfactant P20). Antibodies in mIgG2a format were captured at levels between 475-715 RU via an anti-mouse Fc antibody immobilized to a CM5 chip. Binding was assessed using a titration of C-terminally His-tagged hEphA2-FN2 (Thr437-Asn534+His tag) associated for 30 s or 75 s at 30 uL/min. Data was double-reference subtracted using both a surface without captured antibody and from injections of HBS-EP+ buffer. The equilibrium response was measured at 4 seconds before the end of association with a window of 5 seconds and fit using the Biacore T200 Evaluation Software 3.1 with the Steady State Affinity Model.
# [23] = target: T2, C-terminally His-tagged hEphA2-FN2 …; test: SPR Biacore T200, 25 C, mIgG2a as ligand, FN2-His as analyte, 1:1 Langmuir
# Procedure: Binding of EphA2 antibodies to the FN2 domain of hEphA2 was measured using the Biacore® T200 SPR system. Biacore® assays were conducted at 25° C. using HBS-EP+ buffer (0.01 M HEPES pH 7.4, 0.15 M NaCl, 3 mM EDTA, 0.005% v/v Surfactant P20) using the FN2 domain as the analyte with the antibodies in mIgG2a format as the immobilized ligand. Data was analyzed using 1:1 Langmuir binding model and steady-state model in Biacore Evaluation software.
# C-terminally His-tagged human EphA2 FN2 domain (Thr437-Asn534+His tag) was used as the analyte. The analyte was associated for 120 seconds and dissociated for 100 seconds or 300 seconds at 30 uL/min.
# hEphA2-FN2-(437-534)-Fc = target: T3, hEphA2-FN2-(437-534)-Fc (human, UniProt P29317 437-534); test: SPR Biacore, 25 C, EphA2-Fc captured by anti-human Fc, Fab as analyte, 1:1 Langmuir
# T3 construct: Captured by anti-human Fc on a CM5 chip; also called FN2 domain of EphA2 fused to human Fc
# Procedure: (§1) The hEphA2-Fc fusions were captured with an anti-human Fc immobilized to a CM5 chip. Biacore® assays were conducted at 25° C. using HBS-EP+ buffer (0.01 M HEPES pH 7.4, 0.15 M NaCl, 3 mM EDTA, 0.005% v/v Surfactant P20). Data was double-reference subtracted and data was analyzed using 1:1 Langmuir binding model and steady-state model in Biacore Evaluation software.
# (§2) Binding to hEphA2-ECD-Fc tested using 100, 300, and 900 nM analyte. Binding to all other ligands tested using 33.3, 100, and 300 nM analyte.
# hEphA2-clv435-534-Fc = target: T4, hEphA2-clv435-534-Fc (human, UniProt P29317 435-534); test: as above
# T4 construct: Recombinant fragment representing a cleavage form
# Procedure: as §1, §2
# hEphA2-clv385-534-Fc = target: T5, hEphA2-clv385-534-Fc (human, UniProt P29317 385-534); test: as above
# T5 construct: Recombinant fragment representing a cleavage form
# Procedure: as §1, §2
# hEphA2-clv395-534-Fc = target: T6, hEphA2-clv395-534-Fc (human, UniProt P29317 395-534); test: as above
# T6 construct: Recombinant fragment representing a cleavage form
# Procedure: as §1, §2
# hEphA2-clv432-534-Fc = target: T7, hEphA2-clv432-534-Fc (human, UniProt P29317 432-534); test: as above
# T7 construct: Recombinant fragment representing a cleavage form
# Procedure: as §1, §2
# hEphA2-FN12-(327-534)-Fc = target: T8, hEphA2-FN12-(327-534)-Fc (human, UniProt P29317 327-534); test: as above
# T8 construct: Captured by anti-human Fc on a CM5 chip; also called FN1-FN2 domains of EphA2 fused to human Fc
# Procedure: as §1, §2
# T7 sequence (P29317 432-534): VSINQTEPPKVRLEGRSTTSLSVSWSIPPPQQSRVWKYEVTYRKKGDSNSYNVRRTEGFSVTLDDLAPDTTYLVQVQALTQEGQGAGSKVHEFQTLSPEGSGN
# T8 sequence (P29317 327-534): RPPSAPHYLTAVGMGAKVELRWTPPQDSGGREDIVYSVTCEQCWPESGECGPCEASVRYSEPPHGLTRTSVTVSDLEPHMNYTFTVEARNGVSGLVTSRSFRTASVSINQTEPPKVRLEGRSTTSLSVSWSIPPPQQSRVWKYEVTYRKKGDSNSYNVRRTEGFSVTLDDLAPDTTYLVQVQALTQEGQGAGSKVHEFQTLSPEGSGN
# T4 sequence (P29317 435-534): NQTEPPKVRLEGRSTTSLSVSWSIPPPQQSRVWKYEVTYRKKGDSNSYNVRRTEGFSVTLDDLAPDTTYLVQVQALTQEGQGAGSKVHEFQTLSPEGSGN
# T5 sequence (P29317 385-534): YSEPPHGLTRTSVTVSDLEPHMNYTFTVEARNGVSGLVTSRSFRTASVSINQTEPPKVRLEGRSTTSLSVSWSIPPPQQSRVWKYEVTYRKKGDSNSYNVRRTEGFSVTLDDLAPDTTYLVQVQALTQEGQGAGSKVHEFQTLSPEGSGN
# T3 sequence (P29317 437-534): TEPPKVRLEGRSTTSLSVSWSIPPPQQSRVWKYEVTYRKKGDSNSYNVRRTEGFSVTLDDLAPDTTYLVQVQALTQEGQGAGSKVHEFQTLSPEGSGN
# T2 sequence (P29317 437-534 limits assumed): as the sequence (P29317 437-534) above
# T1 sequence (P29317 24-976 limits assumed): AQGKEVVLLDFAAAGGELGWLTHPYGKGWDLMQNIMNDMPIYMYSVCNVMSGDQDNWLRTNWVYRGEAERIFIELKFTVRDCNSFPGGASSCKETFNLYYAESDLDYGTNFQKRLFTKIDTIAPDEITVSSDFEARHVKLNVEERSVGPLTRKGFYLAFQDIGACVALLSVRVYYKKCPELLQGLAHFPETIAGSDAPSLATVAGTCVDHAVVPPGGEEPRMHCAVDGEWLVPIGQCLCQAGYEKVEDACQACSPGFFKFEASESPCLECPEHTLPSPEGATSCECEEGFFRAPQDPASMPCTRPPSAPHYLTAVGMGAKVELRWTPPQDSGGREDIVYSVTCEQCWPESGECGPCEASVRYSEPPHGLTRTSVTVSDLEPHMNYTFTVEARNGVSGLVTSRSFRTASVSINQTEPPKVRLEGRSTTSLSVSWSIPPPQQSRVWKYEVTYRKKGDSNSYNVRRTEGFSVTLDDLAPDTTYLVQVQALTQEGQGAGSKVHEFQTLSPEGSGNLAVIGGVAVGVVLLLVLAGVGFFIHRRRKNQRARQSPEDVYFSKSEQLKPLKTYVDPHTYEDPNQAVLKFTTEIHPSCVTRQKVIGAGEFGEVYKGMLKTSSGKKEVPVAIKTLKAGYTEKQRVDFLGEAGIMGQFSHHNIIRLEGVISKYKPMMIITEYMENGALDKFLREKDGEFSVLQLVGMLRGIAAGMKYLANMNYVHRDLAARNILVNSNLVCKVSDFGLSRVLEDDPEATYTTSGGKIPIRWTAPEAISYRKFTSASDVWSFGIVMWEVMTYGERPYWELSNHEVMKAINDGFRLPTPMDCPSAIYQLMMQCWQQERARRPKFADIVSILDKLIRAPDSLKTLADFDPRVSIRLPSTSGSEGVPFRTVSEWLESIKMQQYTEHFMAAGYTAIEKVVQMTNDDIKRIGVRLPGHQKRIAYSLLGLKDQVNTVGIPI
# T6 sequence (P29317 395-534): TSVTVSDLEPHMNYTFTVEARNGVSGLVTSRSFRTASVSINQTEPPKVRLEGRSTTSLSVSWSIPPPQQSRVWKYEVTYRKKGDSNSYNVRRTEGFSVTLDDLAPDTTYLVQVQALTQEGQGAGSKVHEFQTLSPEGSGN
Binder,IHC score [1],IHC score [2],IHC score [3],IHC score [4],IHC score [5],IHC score [6],IHC score [7],IHC score [8],IHC score [9],IHC score [10],IHC score [11],IHC score [12],IHC score [13],IHC score [14],IHC score [15],IHC score [16],IHC score [17],IHC score [18],IHC score [19],IHC score [20],other results
B1,1,1,2,2,2,2,1,1,1,1,2,2,1,1,2,1,1,2,2,1,IHC score [21]: 2
B2,1,1,2,2,2,1,1,1,1,1,2,2,2,1,2,1,1,2,2,1,IHC score [21]: 2
B3,1,1,2,2,2,2,1,1,1,1,2,2,2,1,2,1,1,2,2,1,IHC score [21]: 2
B4,1,1,2,2,2,2,1,1,1,1,2,2,2,1,2,1,1,2,2,1,IHC score [21]: 2
B5,–,–,–,–,–,–,–,–,–,–,–,–,–,–,–,–,–,–,–,–,Kd [22]: 18.9 nM; Kd [23]: 19 nM; koff [23]: 0.075 s⁻¹; kon [23]: 3.9e+06 M⁻¹ s⁻¹
B6,–,–,–,–,–,–,–,–,–,–,–,–,–,–,–,–,–,–,–,–,Kd (hEphA2-FN2-(437-534)-Fc): 8.6 nM; koff (hEphA2-FN2-(437-534)-Fc): 0.085 s⁻¹; kon (hEphA2-FN2-(437-534)-Fc): 1e+07 M⁻¹ s⁻¹; Kd (hEphA2-clv435-534-Fc): 9.3 nM; koff (hEphA2-clv435-534-Fc): 0.078 s⁻¹; kon (hEphA2-clv435-534-Fc): 8.42e+06 M⁻¹ s⁻¹; Kd (hEphA2-clv385-534-Fc): 12 nM; koff (hEphA2-clv385-534-Fc): 0.072 s⁻¹; kon (hEphA2-clv385-534-Fc): 6.05e+06 M⁻¹ s⁻¹; Kd (hEphA2-clv395-534-Fc): 12 nM; koff (hEphA2-clv395-534-Fc): 0.07 s⁻¹; kon (hEphA2-clv395-534-Fc): 5.72e+06 M⁻¹ s⁻¹; Kd (hEphA2-clv432-534-Fc): 9.6 nM; koff (hEphA2-clv432-534-Fc): 0.075 s⁻¹; kon (hEphA2-clv432-534-Fc): 7.78e+06 M⁻¹ s⁻¹; Kd (hEphA2-FN12-(327-534)-Fc): 8.6 nM; koff (hEphA2-FN12-(327-534)-Fc): 0.043 s⁻¹; kon (hEphA2-FN12-(327-534)-Fc): 5e+06 M⁻¹ s⁻¹
